This note sets out measurements from patent CN107827984A (ZHANG HUILIN; ZHU JIN, dated 2018).

The target of assay [1] is T1, 重组人ROR1蛋白 (北京义翘神州, 产品编号13968-H08H) (human, UniProt Q01973 30-403).
T1 construct: Bought protein; also called recombinant human ROR1 protein
Kind of assay: ELISA, ROR1 coated at 0.5 μg/mL, Fab from 200 μg/mL in 11 dilutions, goat anti-human Fab secondary, OD450. For orientation: An ELISA detects its analyte on a solid surface through an enzyme-linked reagent.

Assay [2] addresses ROR1天然抗原 (人卵巢癌细胞系A2780) (human) (UniProt Q01973). Kind of assay: flow cytometry on A2780 cells, Fab at 30 μg/mL, FITC goat anti-human Fab secondary. (In flow cytometry, cells or beads pass a laser one at a time.)

T1 sequence (Q01973 30-403 limits assumed): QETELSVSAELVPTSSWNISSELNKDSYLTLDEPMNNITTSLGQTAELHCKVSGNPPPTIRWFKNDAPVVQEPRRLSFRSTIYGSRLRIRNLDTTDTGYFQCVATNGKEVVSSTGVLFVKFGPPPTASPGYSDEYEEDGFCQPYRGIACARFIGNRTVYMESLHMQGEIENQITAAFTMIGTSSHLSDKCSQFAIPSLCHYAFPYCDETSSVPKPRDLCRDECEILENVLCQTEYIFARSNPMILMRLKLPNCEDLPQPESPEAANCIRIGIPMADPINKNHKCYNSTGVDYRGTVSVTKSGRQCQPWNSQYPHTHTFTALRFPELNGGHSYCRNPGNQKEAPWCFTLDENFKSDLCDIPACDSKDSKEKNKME

B1: 嵌合抗ROR1抗体Fab分子 (Fab, V domains shown)
VH: EVQLVQSGGGLVQPKGSLKLSCAASGFTFNTYAMNWVRQAPGKGLEWVARIRSKSNNYATYYADSVKDRFTISRDDSQSMLYLQMNNLKTEDTAMYYCVSPAYYGNYVGFAYWGQGTLVTVSA
VL: ELVMTQSPTTMAASPGEKITFTCSASSSISSTYLHWFQQKPGFSPKLLIYRTSNLASGVPARFSGSGSGTSYSLTIGTMEAEDVATYYCQQGSSLPFTFGSGTKLEIKG
notes: Human-mouse chimeric Fab, L and Fd joined by an interchain disulfide; also called 抗ROR1抗体人鼠嵌合Fab分子; 抗ROR1抗体嵌合Fab分子
Turning to B1, in assay [1], the binding result is given as “binds”. This molecule yielded a 结合率 in assay [2] of 97.4%.
